Experimental data from article PMC6774396 (Frontiers in Immunology, 2019).
Positions count from the first letter of the chain named.

B1: WT: wild-type human L-selectin, C-terminally tagged with GFP or RFP, expressed in THP-1 cells (protein)
chain: WTYHYSEKPMNWQRARRFCRDNYTDLVAIQNKAEIEYLEKTLPFSRSYYWIGIRKIGGIWTWVGTNKSLTEEAENWGDGEPNNKKNKEDCVEIYIKRNKDAGKWNDDACHKLKAALCYTASCQPWSCSGHGECVEIINNYTCNCDVGYYGPQCQFVIQCEPLEAPELGTMDCTHPLGNFSFSSQCAFSCSEGTNLTGIEETTCGPFGNWSSPEPTCQVIQCEPLSAPDLGIMNCSHPLASFSFTSACTFICSEGTELIGKKKTICESSGIWSNPSPICQKLDKSFSMIKEGDYNPLFIPVAVMVTAFSGLAFIIWLARRLKKGKKSKRSMNDPY
modifications: left off: eGFP (donor copy) or mCherry (acceptor copy, called RFP), C-terminal, kept
B2: SSAA: L-selectin with Ser^364 and Ser^367 both mutated to alanines (protein)
chain: B1 chain with S326A, S329A
modifications: left off: eGFP (donor copy) or mCherry (acceptor copy, called RFP), C-terminal, kept

Experiments:
[1] = test system: THP-1 cells on immobilized biglycan; details: isolated THP-1 cells, L-selectin-GFP/RFP; cited from earlier work
Excerpt: This figure pieces together data from our recently published work ([8], [23]) with our data from this study. (A,B) In cells expressing WT L-selectin, clustering is only witnessed within pseudopods of transmigrating cells. […] Moesin-driven clustering is a pre-requisite for L-selectin shedding, and so the balance of L-select ...

[2] = test system: THP-1 cells over TNF-α-activated HUVEC; assay: Pseudopod protrusion scoring in TEM under flow; assay type: cell-based, human; details: for cells with 2 protrusions / cells with 0 protrusions: 15 min time point, mean of 3 fields of view per flow experiment, three occasions, at least 180 cells per group, % printed; for cells with 2 protrusions: significance ** S367A p ≤ 0.01 (Tukey); for cells with 0 protrusions: significance *** S367A p ≤ 0.001, ** SSAA p ≤ 0.01 (Tukey)
Protocol: (A) The number of protrusions formed over this period was scored as: zero, one, two, or >2. (B) The percentages of cells bearing these protrusions were scored at specific time points: 6 min (blue bars), 15 min (green bars), or 25 min (red bars). Supplementary Videos 2, 3, 4 provide examples of cells producing a range of protrusions as TEM proceeds. Data represent SEM of 3 fields of view per flow experiment, conducted on three separate occasions, and at least 180 cells analyzed per group. Values of the vertical lines indicate the differences in protrusion number (specifically “zero” and “two”) corresponding to each of the cell lines, for which statistical significance is shown in Table 1.
All flow experiments were performed using a 35 mm diameter Glycotech parallel plate flow chamber. Perfusion experiments were performed at 1.5 dyn/cm^2 using a Harvard Apparatus 2000 PHD syringe pump. Perfusion media consisted of: RPMI supplemented with L-glutamine, 10% FCS, 1% penicillin/streptomycin, 50 μM β-mercaptoethanol, and 25 mM HEPES. Human Umbilical Vein Endothelial Cells (HUVEC–Lonza) were seeded onto 35 mm diameter glass coverslips (no. 1 thickness; VWR) that were pre-coated with 10 μg/mL fibronectin (37°C for at least 1 h). Before each perfusion assay, HUVEC were stimulated overnight (16 h) with 10 ng/mL carrier-free recombinant human TNF-α (R&D Systems). Each perfusion assay was performed by injecting a bolus of cells for 6 min, followed by just perfusion media (without cells) for the […]. THP-1 cells were perfused at a density of 0.5 ×10^6 cells per mL. THP-1 cells treated with 10 μM TAPI-0 required a preincubation time of 10 min at 37°C before perfusion over TNF-α-activated HUVEC. Note that 10 μM TAPI-0 was also supplemented in the perfusate. Stills were acquired once every 10 seconds using 10 × objective lens.

[3] = test system: THP-1 cells over TNF-α-activated HUVEC; assay: L-selectin-GFP/RFP clustering in mid-TEM under flow, FLIM/FRET; assay type: cell-based, human; details: 15 min perfusion at 1.5 dyn/cm^2, fixed in mid-TEM; Top = non-transmigrated uropods, Base = transmigrated pseudopods; at least 45 cells, 3 experiments; no TAPI-0
Protocol: (A) Line scanning confocal microscopic image of THP-1 cells, stably expressing GFP, captured in mid-TEM—following 15 min of perfusion over TNF-α-activated HUVEC monolayers. […] “Top” and “Base,” respectively, represent the apical and basolateral aspect of the endothelium (x63 objective lens, Leica SP5). Scale bar = 24 μm. (B,C) THP-1 cells expressing WT, SSAA, or SSDD L-selectin-GFP/RFP were perfused over TNF-α-activated HUVEC and fixed after 15 min of perfusion. […] Lifetime images taken of at least 45 cells and analyzed over 3 independent experiments was quantified and expressed as FRET efficiency. Images representative of three independent experiments, where at least 45 cells of each group was analyzed at two optical sections, Top and Base, as indicated in the cartoon of a yellow monocyte captured in mid-TEM crossing a red endothelium. Individual GFP channel and lifetime images are provided for each cell line. The lifetime of fluorescence is expressed in a pseudocolour scale from red (low lifetime with a very high probability of interaction) to blue (high lifetime with a very low probability of interaction). Statistics: unpaired student t-test ***p ≤ 0.001.
Cells expressing WT L-selectin-GFP/RFP were treated for 30 min with 10 μM TAPI-0 and subsequently perfused over TNF-activated HUVEC monolayers for 15 min prior to fixation and analysis for FRET by FLIM (see Materials and Methods for more detail). […] (B) Images representative of three independent experiments, where at least 45 cells of each group were analyzed at two optical sections–non-transmigrated uropods (Top) and transmigrated pseudopods (Base). GFP fluorescence channel and lifetime images are provided for each cell line. The lifetime of fluorescence is expressed in a pseudocolour scale from red (low lifetime with a very high probability of interaction) to blue (high lifetime with a very low probability of interaction). […]
FLIM measurement of FRET was performed with a multiphoton microscope system as described previously ([8], [23]). […] Fluorescence lifetime imaging capability was provided by time-correlated, single-photon counting electronics (SPC 700; Becker & Hickl). […] Data were analyzed as previously described ([65]). The FRET efficiency is related to the molecular separation of donor and acceptor and the fluorescence lifetime of the interacting fraction by: […]
where ηFRET is the FRET efficiency, R0 is the Förster radius, r is the molecular separation, τFRET is the lifetime of the interacting fraction and τd is the lifetime of the donor in the absence of an acceptor. The donor- only control is used as the reference against which all of other lifetimes are calculated in each experiment. τFRET and τd can also be taken to be the lifetime of the interacting fraction and non-interacting fraction, respectively. […]

Molecule | clustering on immobilized biglycan [1] | cells with 2 protrusions [2] [%] | cells with 0 protrusions [2] | subcellular distribution of L-selectin clustering during TEM (FLIM/FRET) [3] | protrusive activity profile in TEM (in words) ([2]; 6, 15 and 25 min of flow over TNF-α-activated HUVEC)
B1 | can cluster when seeded onto immobilized biglycan | 36.2 | 7.9% | clustered exclusively within transmigrated pseudopods | –
B2 | – | 24.9 | 22.4^** % | phenocopied the subcellular distribution of WT L-selectin | phenocopied more the S367A than the S364A cell line
